Assay results taken from patent publication US10562947B2, “Compositions and methods for preventing or treating diseases, conditions or processes characterized by aberrant fibroblast proliferation and extracellular matrix deposition” (MOERAE MATRIX, INC., priority 2011, dated 2020).

What was measured:
Assay in all cases: Kinase Profiling Assay
Assay type in all cases: biochemical
Conditions in all cases: 100 μM peptide
[1] = molecular target: T1, IRAK1(h) (Homo sapiens, UniProt P51617)
T1 construct: purchased Millipore
Method in brief: (§1)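 Each kinase in a 266-member human panel is assayed, in duplicate, for activity in the presence of MK2 inhibitory peptides to gauge specificity.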

[2] = molecular target: Met(D1246N)(h) (Homo sapiens, UniProt P08581, D1228N)
Method in brief: as §1

[3] = molecular target: T2, ZAP-70(h) (Homo sapiens, UniProt P43403)
T2 sequence (P43403 1-619): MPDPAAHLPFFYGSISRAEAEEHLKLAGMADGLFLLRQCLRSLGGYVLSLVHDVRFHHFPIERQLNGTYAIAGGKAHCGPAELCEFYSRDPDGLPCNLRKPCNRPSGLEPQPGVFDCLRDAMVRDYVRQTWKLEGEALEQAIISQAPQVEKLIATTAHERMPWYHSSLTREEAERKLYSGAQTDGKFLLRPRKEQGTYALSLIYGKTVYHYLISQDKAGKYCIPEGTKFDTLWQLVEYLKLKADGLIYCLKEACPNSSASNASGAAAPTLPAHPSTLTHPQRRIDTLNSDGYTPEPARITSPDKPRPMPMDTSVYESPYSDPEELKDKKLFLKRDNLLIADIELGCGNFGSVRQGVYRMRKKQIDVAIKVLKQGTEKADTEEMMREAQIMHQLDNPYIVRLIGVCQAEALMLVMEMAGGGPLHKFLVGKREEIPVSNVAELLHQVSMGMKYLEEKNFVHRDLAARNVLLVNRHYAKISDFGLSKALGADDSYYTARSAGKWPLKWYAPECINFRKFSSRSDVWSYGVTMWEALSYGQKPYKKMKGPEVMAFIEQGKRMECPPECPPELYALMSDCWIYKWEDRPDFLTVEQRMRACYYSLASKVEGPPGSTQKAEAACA
Method in brief: as §1

[4] = molecular target: PKCα(h) (Homo sapiens, UniProt P17252)
Method in brief: as §1

[5] = molecular target: PKCβII(h) (Homo sapiens, UniProt P05771)
Method in brief: as §1

[6] = molecular target: CaMKIδ(h) (Homo sapiens, UniProt Q8IU85)
Method in brief: as §1

[7] = molecular target: T3, TBK1(h) (Homo sapiens, UniProt Q9UHD2)
T3 sequence (Q9UHD2 1-729): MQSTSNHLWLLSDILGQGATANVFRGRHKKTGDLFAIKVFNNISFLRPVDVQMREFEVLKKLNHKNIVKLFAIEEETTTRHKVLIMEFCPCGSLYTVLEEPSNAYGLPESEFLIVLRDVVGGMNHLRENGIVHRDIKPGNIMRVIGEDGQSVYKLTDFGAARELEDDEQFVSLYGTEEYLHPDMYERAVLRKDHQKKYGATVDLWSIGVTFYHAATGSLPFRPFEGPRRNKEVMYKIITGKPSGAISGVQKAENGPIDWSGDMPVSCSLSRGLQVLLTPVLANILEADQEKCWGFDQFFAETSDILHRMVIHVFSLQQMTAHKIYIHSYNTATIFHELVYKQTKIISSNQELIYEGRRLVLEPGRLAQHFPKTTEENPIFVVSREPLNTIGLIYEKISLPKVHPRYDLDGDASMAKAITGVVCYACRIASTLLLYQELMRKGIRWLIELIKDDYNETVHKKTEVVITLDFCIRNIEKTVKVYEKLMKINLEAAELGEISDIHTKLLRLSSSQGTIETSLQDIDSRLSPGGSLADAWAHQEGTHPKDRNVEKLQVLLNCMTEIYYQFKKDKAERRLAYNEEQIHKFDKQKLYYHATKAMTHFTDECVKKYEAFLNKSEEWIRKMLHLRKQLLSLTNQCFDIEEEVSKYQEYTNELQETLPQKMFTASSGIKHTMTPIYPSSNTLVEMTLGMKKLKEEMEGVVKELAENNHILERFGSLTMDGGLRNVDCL
Method in brief: as §1

[8] = molecular target: MLK1(h) (Homo sapiens, UniProt P80192)
Method in brief: as §1

[9] = molecular target: T4, MST2(h) (Homo sapiens, UniProt Q13188)
T4 sequence (Q13188 1-491): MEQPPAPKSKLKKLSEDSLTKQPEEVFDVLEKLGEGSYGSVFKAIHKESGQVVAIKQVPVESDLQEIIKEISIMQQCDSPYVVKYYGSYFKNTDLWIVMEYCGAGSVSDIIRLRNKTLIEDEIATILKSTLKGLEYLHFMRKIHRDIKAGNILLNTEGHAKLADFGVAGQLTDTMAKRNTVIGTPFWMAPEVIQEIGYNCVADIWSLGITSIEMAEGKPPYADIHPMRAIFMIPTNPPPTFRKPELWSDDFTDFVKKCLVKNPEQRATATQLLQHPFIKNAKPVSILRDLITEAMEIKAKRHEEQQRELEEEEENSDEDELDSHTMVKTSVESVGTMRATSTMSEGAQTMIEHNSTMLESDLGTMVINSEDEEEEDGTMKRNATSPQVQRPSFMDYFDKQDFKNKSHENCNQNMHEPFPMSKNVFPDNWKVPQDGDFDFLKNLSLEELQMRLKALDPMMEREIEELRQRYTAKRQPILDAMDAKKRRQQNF
Method in brief: as §1

CaMKIδ(h), sequence (Q8IU85 whole entry): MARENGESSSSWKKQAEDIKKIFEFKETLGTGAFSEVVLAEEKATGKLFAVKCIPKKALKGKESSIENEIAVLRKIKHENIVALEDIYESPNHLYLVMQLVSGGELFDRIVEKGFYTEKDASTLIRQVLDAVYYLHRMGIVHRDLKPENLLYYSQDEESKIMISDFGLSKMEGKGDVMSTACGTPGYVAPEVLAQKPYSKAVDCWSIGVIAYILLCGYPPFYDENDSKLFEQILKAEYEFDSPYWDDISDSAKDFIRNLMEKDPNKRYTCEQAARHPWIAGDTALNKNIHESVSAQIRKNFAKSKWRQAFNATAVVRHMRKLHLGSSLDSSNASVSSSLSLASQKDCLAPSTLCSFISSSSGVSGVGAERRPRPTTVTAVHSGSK
T1 sequence (P51617 whole entry): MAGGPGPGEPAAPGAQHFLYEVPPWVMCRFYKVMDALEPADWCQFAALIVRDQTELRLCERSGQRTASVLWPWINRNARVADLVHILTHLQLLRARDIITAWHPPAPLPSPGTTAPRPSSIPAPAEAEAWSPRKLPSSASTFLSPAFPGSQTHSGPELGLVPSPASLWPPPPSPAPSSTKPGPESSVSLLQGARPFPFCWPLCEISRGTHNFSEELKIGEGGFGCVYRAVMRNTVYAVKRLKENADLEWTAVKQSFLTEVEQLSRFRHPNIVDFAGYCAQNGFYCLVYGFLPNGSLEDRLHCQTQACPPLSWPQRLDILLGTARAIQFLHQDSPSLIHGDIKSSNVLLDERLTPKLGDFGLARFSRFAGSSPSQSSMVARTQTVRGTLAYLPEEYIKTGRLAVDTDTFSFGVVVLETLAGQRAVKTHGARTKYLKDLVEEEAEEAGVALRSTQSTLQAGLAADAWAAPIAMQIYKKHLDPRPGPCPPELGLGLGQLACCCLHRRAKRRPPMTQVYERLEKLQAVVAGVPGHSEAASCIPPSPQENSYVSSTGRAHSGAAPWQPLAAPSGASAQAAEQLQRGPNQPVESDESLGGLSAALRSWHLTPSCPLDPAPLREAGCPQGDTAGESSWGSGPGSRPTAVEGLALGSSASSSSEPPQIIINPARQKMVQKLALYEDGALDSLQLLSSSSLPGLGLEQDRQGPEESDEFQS
MLK1(h), sequence (P80192 whole entry): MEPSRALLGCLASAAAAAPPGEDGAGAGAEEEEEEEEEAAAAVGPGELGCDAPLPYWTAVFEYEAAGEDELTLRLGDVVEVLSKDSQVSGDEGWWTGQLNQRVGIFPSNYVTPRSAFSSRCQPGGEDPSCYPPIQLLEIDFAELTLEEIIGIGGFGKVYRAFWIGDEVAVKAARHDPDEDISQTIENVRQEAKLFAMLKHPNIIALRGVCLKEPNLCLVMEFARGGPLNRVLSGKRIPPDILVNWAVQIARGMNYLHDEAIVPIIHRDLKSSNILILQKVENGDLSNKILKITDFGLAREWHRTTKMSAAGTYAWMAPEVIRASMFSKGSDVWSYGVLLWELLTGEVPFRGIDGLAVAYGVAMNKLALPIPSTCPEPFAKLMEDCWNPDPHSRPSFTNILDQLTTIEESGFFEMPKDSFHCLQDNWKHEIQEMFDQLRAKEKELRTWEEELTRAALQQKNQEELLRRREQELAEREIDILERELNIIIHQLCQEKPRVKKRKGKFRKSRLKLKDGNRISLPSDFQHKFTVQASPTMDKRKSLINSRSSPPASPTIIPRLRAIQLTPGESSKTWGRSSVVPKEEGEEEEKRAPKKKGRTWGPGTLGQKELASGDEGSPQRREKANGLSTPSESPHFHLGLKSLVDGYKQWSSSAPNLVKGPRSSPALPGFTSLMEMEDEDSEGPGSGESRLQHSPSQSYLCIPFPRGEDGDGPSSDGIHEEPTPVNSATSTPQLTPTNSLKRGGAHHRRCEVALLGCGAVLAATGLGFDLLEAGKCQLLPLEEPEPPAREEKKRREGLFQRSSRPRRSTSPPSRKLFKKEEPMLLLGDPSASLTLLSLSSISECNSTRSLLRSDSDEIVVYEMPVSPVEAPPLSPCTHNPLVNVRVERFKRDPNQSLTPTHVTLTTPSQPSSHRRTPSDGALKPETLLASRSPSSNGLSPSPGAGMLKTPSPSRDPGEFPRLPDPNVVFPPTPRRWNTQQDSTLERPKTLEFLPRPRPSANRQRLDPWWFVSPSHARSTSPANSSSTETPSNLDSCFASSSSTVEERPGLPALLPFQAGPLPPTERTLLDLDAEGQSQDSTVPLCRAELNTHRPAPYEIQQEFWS
PKCβII(h), sequence (P05771 1-673 isoform P05771-2): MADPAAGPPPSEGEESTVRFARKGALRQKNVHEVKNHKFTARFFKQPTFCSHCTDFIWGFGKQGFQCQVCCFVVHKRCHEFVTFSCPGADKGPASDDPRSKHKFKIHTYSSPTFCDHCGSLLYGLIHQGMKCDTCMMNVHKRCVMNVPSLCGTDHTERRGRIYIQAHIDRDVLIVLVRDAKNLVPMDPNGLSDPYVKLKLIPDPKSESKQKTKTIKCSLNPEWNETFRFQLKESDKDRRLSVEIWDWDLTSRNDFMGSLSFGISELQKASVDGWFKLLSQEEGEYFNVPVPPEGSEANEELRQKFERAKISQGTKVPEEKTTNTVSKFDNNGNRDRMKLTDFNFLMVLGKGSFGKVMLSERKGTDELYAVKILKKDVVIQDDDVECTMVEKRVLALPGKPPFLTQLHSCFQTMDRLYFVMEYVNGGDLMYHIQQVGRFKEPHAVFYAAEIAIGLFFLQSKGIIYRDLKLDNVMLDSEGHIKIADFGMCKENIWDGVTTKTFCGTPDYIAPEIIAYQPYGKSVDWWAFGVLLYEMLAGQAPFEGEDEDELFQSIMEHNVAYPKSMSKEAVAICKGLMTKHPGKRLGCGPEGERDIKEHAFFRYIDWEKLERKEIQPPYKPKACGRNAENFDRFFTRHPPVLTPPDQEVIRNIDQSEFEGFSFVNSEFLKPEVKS

YARAAARQARAKALNRQLGVA (Mammalian) [MMI-0200]
IRAK1(h) % activity [1]: 101% | Met(D1246N)(h) % activity [2]: 149% | ZAP-70(h) % activity [3]: 58% | PKCα(h) % activity [4]: 100% | PKCβII(h) % activity [5]: 100% | CaMKIδ(h) % activity [6]: 47% | TBK1(h) % activity [7]: 98% | MLK1(h) % activity [8]: 84%

HRRIKAWLKKIKALARQLGVAA (Mammalian) [MMI-0500]
IRAK1(h) % activity [1]: 5% | Met(D1246N)(h) % activity [2]: 90% | ZAP-70(h) % activity [3]: 1% | PKCα(h) % activity [4]: 3% | MST2(h) % activity [9]: 2% | PKCβII(h) % activity [5]: 3% | CaMKIδ(h) % activity [6]: 0% | TBK1(h) % activity [7]: 16% | MLK1(h) % activity [8]: 43%

KAFAKLAARLYRKALARQLGVAA [MMI-0400]
IRAK1(h) % activity [1]: 93% | Met(D1246N)(h) % activity [2]: 31% | ZAP-70(h) % activity [3]: 33% | PKCα(h) % activity [4]: 86% | MST2(h) % activity [9]: 11% | PKCβII(h) % activity [5]: 75% | CaMKIδ(h) % activity [6]: 17% | TBK1(h) % activity [7]: 39% | MLK1(h) % activity [8]: 33%

FAKLAARLYRKALARQLGVAA [MMI-0300]
IRAK1(h) % activity [1]: 95% | Met(D1246N)(h) % activity [2]: 82% | ZAP-70(h) % activity [3]: 75% | PKCα(h) % activity [4]: 89% | MST2(h) % activity [9]: 19% | PKCβII(h) % activity [5]: 82% | CaMKIδ(h) % activity [6]: 10% | TBK1(h) % activity [7]: 37% | MLK1(h) % activity [8]: 40%
